Experimental data from publication PMC9598796 (2022).

Target: biotinylated Stx2a holotoxin (Shiga toxin-producing E. coli (STEC), UniProt P09385;P09386)
Assay: BLI

Chain of biotinylated Stx2a holotoxin (P09385 23-319, chain 1 of 2): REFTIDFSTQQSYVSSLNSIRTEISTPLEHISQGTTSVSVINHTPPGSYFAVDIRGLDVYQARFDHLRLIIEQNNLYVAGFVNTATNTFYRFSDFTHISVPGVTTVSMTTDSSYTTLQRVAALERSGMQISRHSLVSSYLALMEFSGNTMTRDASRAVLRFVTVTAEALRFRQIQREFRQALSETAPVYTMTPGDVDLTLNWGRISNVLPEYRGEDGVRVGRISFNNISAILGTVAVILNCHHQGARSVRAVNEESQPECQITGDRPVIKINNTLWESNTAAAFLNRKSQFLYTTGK
Chain of biotinylated Stx2a holotoxin (P09386 20-89, chain 2 of 2): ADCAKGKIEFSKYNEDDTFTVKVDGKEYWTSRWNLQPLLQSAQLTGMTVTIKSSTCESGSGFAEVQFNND

B1: dimeric DARPin SD5 (#3-SHT) (designed binder)
chain: GKKLLEAARAGQDDEVRILMANGADVNACDSNGRTPLHLAAVRGHLEIVEVLLKNGADVNAWDVIGKTPLHLAADGGHLEIVEVLLKNGADVNAWDLIGRTPLHLAALDGHLEIVEVLLEHGADVNAYDRPGHTPLHLAARRGHLEIVEVLLKYGADVNAQDKFGKTAFDISIDNGNEDLAEILQGGGGSGGGGSGGGGSGGGGSGKKLLEAARAGQDDEVRILVANGADVNAGDPFGFTPLHLAALYGHLEIVEVLLKNGADVNAHEEYGFTPLHLAAVVSHMEIVEVLLNNGADVNARDNQGGSPLHLASHTGHLEIVEVLLKQGADVNAQDKFGKTAYDISIDIGNEDLAEILQ
- koff: 0.0126 s⁻¹

B2: DARPin #3 (designed binder)
chain: GKKLLEAARAGQDDEVRILMANGADVNACDSNGRTPLHLAAVRGHLEIVEVLLKNGADVNAWDVIGKTPLHLAADGGHLEIVEVLLKNGADVNAWDLIGRTPLHLAALDGHLEIVEVLLEHGADVNAYDRPGHTPLHLAARRGHLEIVEVLLKYGADVNAQDKFGKTAFDISIDNGNEDLAEILQ
- koff: 0.0438 s⁻¹
